From patent US20260209332A1 (SORRISO PHARMACEUTICALS, published 2026)

T1: interleukin-23 (IL-23) (UniProt Q9NPF7 20-189; P29460 23-328)
T1 sequence (looked up) 1: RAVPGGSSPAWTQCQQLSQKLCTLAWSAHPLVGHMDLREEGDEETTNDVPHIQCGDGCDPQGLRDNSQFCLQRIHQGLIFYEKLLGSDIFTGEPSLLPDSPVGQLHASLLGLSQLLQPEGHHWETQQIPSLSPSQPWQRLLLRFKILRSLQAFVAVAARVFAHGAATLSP
T1 sequence (looked up) 2: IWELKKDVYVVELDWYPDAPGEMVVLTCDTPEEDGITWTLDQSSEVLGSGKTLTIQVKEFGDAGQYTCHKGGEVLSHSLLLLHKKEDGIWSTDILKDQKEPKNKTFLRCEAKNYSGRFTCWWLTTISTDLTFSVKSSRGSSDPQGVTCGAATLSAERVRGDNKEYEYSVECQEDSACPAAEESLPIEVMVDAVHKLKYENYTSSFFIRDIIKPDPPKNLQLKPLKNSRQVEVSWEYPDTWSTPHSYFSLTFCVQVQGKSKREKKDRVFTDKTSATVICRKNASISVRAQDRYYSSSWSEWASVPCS

B1: liberated anti-IL-23 monomer arm of TNF-alpha/IL-23 dual inhibitor (VHH)
VHH: EVQLVESGGGQVQPGGSLSLSCESSVSIWSFKVMGWFRQVPGKQRELVATITTGGSPDYSDSVKGRFTISRDYDKRTLYLQMNSLKPEDTAVYYCAGRLWAHITSSGHDVWGQGTQVTVSS
notes: Cleavage product; carries the remnant of the linker at its N-terminus; also called liberated-IL-23
B2: IL-23 inhibitor (anti-IL-23 single domain antibody, parent monomer) (VHH)
VHH: B1 VHH
notes: Produced in yeast; also called IL-23: D1E ID-L253T
B3: TNF-alpha/IL-23 dual inhibitor (bispecific anti-TNF-alpha/anti-IL-23 domain antibody) (bispecific antibody)
chain: DVQLVESGGGLVQPGGSLKLSCAASGFDFSSHWMYWVRQAPGKELEWLSEINTNGLITHYGDSVKGRFTVSRNNAANKMYLELTRLEPEDTALYYCARNQHGLNKGQGTQVTVSSGGGGSGGGGSKGGGGSGGGGSEVQLVESGGGQVQPGGSLSLSCESSVSIWSFKVMGWFRQVPGKQRELVATITTGGSPDYSDSVKGRFTISRDYDKRTLYLQMNSLKPEDTAVYYCAGRLWAHITSSGHDVWGQGTQVTVSS
notes: Produced and purified from yeast; also called FA1K
B4: TNF-alpha inhibitor (anti-TNF-alpha single domain antibody, parent monomer) (VHH)
VHH: DVQLVESGGGLVQPGGSLKLSCAASGFDFSSHWMYWVRQAPGKELEWLSEINTNGLITHYGDSVKGRFTVSRNNAANKMYLELTRLEPEDTALYYCARNQHGLNKGQGTQVTVSS
notes: Produced and purified from yeast; also called ID-38F
B5: liberated anti-TNF-alpha monomer arm of TNF-alpha/IL-23 dual inhibitor (VHH)
VHH: B4 VHH
notes: Cleavage product; carries the remnant of the linker at its C-terminus; also called liberated-TNF

How the values were obtained:
interleukin-23 (IL-23) [1] = target: T1, interleukin-23 (IL-23); assay: IL-23/IL-23R interference ELISA; blocked interaction: IL-23 with IL-23 receptor; arm liberated by trypsin
interleukin-23 (IL-23) [2] = target: T1, interleukin-23 (IL-23); assay: IL-23/IL-23R interference ELISA; blocked interaction: IL-23 with IL-23 receptor
[3] = target: T2, tumor necrosis factor alpha (TNF-alpha) (UniProt P01375 77-233); assay: competition ELISA on TNF-alpha; competitor: biotinylated adalimumab
T2 construct: Called a homo-trimeric protein in the general description
T2 sequence (P01375 77-233 limits assumed): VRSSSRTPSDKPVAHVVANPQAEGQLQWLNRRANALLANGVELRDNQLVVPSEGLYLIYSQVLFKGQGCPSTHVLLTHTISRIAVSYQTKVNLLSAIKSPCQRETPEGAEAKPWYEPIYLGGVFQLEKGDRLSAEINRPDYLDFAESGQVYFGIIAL

[4] = target: T2, tumor necrosis factor alpha (TNF-alpha); assay: competition ELISA on TNF-alpha; competitor: biotinylated adalimumab; arm liberated by trypsin

Row | Binder | IC50 (read off the curve) (interleukin-23 (IL-23) [2]) [nM] | IC50 (read off the curve) [3] [nM] | other results
1 | B1 |  |  | IC50 (read off the curve) (interleukin-23 (IL-23) [1]): ~0.1 nM
2 | B2 | ~0.2 |  | 
3 | B3 | ~0.2 | ~0.2 | 
4 | B4 |  | ~0.3 | 
5 | B5 |  |  | IC50 (read off the curve) [4]: ~0.2 nM
